Holding throughout (test): two-hybrid library CCNG1;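 also: natural log of median RNA to DNA barcode read ratio; higher means stronger binding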
One test has as its target T1, 4H906-bN.
T1 chain: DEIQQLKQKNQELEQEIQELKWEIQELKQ

A further test concerns the target T2, P4mSN.
T2 chain: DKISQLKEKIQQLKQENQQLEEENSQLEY

Another test addresses T3, 4H1710-bH.
T3 chain: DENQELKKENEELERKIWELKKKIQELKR

The next test concerns the target T4, 4H1804-bH.
T4 chain: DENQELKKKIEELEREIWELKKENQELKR

The target of another test is T5, 4H1899-bH.
T5 chain: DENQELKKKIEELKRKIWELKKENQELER

The target in another test is T6, 4H1985-bH.
T6 chain: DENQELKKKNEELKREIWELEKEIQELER

The next test concerns the target T7, 4H3129-bH.
T7 chain: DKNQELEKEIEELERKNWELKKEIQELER

The target of a further test is T8, 4H3162-bH.
T8 chain: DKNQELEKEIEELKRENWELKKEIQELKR

The target of the next test is T9, 4H3172-bH.
T9 chain: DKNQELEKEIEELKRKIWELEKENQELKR

Another test deals with T10, 4H3175-bH.
T10 chain: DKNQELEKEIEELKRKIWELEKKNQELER

The target in the next test is T11, 4H3277-bH.
T11 chain: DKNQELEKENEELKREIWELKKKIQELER

The target of another test is T12, 4H3298-bH.
T12 chain: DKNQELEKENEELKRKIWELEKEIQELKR

A further test addresses T13, 4H3381-bH.
T13 chain: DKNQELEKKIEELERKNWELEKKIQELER

The target of another test is T14, 4H3414-bH.
T14 chain: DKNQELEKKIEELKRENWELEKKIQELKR

The next test deals with T15, 4H3462-bH.
T15 chain: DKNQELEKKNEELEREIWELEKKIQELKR

For a further test, the target named is T16, 4H3497-bH.
T16 chain: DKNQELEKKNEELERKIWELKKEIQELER

Another test deals with T17, 4H3613-bH.
T17 chain: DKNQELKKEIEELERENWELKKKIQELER

In a further test the target is T18, 4H3628-bH.
T18 chain: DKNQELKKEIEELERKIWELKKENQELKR

The next test deals with T19, 4H3631-bH.
T19 chain: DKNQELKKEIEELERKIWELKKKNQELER

The target in the next test is T20, 4H3638-bH.
T20 chain: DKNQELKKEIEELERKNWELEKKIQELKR

The target of another test is T21, 4H3817-bH.
T21 chain: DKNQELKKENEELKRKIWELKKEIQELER

For a further test, the target named is T22, 4H3858-bH.
T22 chain: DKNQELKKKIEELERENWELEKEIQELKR

The next test has as its target T23, 4H3926-bH.
T23 chain: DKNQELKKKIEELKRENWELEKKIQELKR

The target of the next test is T24, 4H3974-bH.
T24 chain: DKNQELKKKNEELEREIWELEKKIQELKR

A further test deals with T25, 4H570-bH.
T25 chain: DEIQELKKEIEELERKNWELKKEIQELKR

A further test deals with T26, 4H584-bH.
T26 chain: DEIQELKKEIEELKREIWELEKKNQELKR

A further test concerns the target T27, 4H591-bH.
T27 chain: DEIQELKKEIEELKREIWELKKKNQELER

Another test addresses T28, 4H619-bH.
T28 chain: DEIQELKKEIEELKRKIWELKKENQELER

Another test deals with T29, 4H626-bH.
T29 chain: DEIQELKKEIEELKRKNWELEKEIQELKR

The target of the next test is T30, 4H850-bH.
T30 chain: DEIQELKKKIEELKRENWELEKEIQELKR

The next test deals with T31, 4H906-bH.
T31 chain: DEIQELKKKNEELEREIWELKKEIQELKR

For another test, the target named is T32, P5mSN.
T32 chain: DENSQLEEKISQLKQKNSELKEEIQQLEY

The target of the next test is T33, P6mSN.
T33 chain: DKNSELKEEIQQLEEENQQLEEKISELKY

The next test deals with T34, P7mSN.
T34 chain: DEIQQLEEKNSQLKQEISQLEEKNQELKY

A further test concerns the target T35, P8mSN.
T35 chain: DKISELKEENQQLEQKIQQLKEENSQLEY

The target of another test is T36, P9mSN.
T36 chain: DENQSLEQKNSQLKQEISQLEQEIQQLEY

The target in a further test is T37, 4H1804-bA.
T37 chain: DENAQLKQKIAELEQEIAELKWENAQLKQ

A further test addresses T38, 4H1985-bA.
T38 chain: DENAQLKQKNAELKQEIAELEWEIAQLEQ

For the next test, the target named is T39, 4H3129-bA.
T39 chain: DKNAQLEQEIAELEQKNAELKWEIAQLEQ

For the next test, the target named is T40, 4H3172-bA.
T40 chain: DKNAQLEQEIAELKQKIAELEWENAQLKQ

The target of the next test is T41, 4H3414-bA.
T41 chain: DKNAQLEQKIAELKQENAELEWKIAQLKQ

In the next test the target is T42, 4H3631-bA.
T42 chain: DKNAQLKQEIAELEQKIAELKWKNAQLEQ

Another test concerns the target T43, 4H3638-bA.
T43 chain: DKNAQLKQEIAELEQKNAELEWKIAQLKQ

For another test, the target named is T44, 4H3817-bA.
T44 chain: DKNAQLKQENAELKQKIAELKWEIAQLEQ

The target of another test is T45, 4H3974-bA.
T45 chain: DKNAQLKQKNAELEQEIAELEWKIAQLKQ

For another test, the target named is T46, 4H570-bA.
T46 chain: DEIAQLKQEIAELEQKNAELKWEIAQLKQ

The target of another test is T47, 4H584-bA.
T47 chain: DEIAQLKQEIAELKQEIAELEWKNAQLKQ

The target in a further test is T48, 4H619-bA.
T48 chain: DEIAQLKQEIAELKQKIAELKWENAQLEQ

The target of the next test is T49, 4H850-bA.
T49 chain: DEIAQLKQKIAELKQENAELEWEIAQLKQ

The target in another test is T50, 4H906-bA.
T50 chain: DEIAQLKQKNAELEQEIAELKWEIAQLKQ

For DEIQQLKQKNQELEQEIQELKWEIQELKQ [4H906-bN], the interaction score with 4H906-bN was -0.198; with P4mSN, -1.42.
DENQELKKENEELERKIWELKKKIQELKR [4H1710-bH]: the interaction score with 4H1710-bH is 0.661; with 4H1804-bH it was -0.929; with 4H1899-bH, 0.26; with 4H1985-bH, 0.219; with 4H3129-bH, 0.0138; in the test with 4H3162-bH it was -0.655. Further, the interaction score was 0.358 with 4H3172-bH; 0.0594 with 4H3175-bH; 0.846 in the test with 4H3277-bH; -0.00934 in the test with 4H3298-bH; -1.3 with 4H3381-bH; -0.234 in the test with 4H3414-bH. Besides, the interaction score in the test with 4H3462-bH is 0.869; in the test with 4H3497-bH it was 0.794; with 4H3613-bH, -0.955; with 4H3628-bH, 1.35; with 4H3631-bH, 0.643; in the test with 4H3638-bH, -0.567. Further, the interaction score with 4H3817-bH was 0.823; with 4H3858-bH, -0.238; in the test with 4H3926-bH, 0.806; with 4H3974-bH, 0.887; with 4H570-bH it was -0.481; with 4H584-bH, 0.848. The interaction score with 4H591-bH is -1.94; with 4H619-bH, 0.404; in the test with 4H626-bH it was 0.853; with 4H850-bH, 0.221; with 4H906-bH it was -0.745.
DKISQLKEKIQQLKQENQQLEEENSQLEY [P4mSN]: the interaction score with P4mSN was -1.76; with P5mSN, -1.42; with P6mSN it was -0.838; with P7mSN, -1.04; with P8mSN, -1.53; with P9mSN, -1.07.
With DENAQLKQKIAELEQEIAELKWENAQLKQ [4H1804-bA], the interaction score in the test with 4H1804-bA is 0.9; with 4H1985-bA, -0.729; with 4H3129-bA, 0.386; with 4H3172-bA, -0.016; with 4H3414-bA, -0.0712; in the test with 4H3631-bA, 0.394. Moreover, the interaction score in the test with 4H3638-bA was -0.376; with 4H3817-bA, -0.0173; with 4H3974-bA, -0.32; in the test with 4H570-bA, -0.765; with 4H584-bA, -0.489; in the test with 4H619-bA, -1.65. For the same molecule, the interaction score with 4H850-bA is -0.531; in the test with 4H906-bA, -0.55.

The values above are taken from publication PMC10397247.
